Measured values from publication PMC3863616 (Journal of thrombosis and haemostasis : JTH, 2009).
Where a chain is given by its changes, count along the chain named. Names and notes keep the numbering of the source. Where two headings read alike, the source gives them in different places. One block for each molecule: values may come before it.

Experiments:
[1] = target: VWF (antibody-immobilized) (Homo sapiens) (UniProt P04275); settings: cited from earlier work
[2] = target: VWF (plastic-immobilized) (Homo sapiens) (UniProt P04275); settings: cited from earlier work
[3] = target: Purified recombinant von Willebrand factor (UniProt P04275); assay: co-IP + ELISA
[4] = target: Endogenous von Willebrand factor of normal human plasma (human (endogenous in normal human …, UniProt P04275 764-2813)); assay: co-IP + ELISA
[5] = target: T1, Purified recombinant von Willebrand factor (UniProt P04275 764-2813); assay: co-IP + ELISA
[6] = target: T1, Purified recombinant von Willebrand …; assay: co-IP + ELISA; remark: listed apart in the source

Molecule: ADAMTS13 (from UniProt Q76LX8)
Kd [1]: 90 nM | Kd [2]: 14 nM

Molecule: Human recombinant ADAMTS13 truncated after the eighth TSR (domain or fragment)
Kd [3]: 100 nM

Results, then the molecule that gave them:

stoichiometry N [4]: 0.004 ADAMTS13 per VWF (molar ratio)
B1: Endogenous ADAMTS13 of normal human plasma (enzyme, UniProt Q76LX8 75-1427, looked up)
chain: AAGGILHLELLVAVGPDVFQAHQEDTERYVLTNLNIGAELLRDPSLGAQFRVHLVKMVILTEPEGAPNITANLTSSLLSVCGWSQTINPEDDTDPGHADLVLYITRFDLELPDGNRQVRGVTQLGGACSPTWSCLITEDTGFDLGVTIAHEIGHSFGLEHDGAPGSGCGPSGHVMASDGAAPRAGLAWSPCSRRQLLSLLSAGRARCVWDPPRPQPGSAGHPPDAQPGLYYSANEQCRVAFGPKAVACTFAREHLDMCQALSCHTDPLDQSSCSRLLVPLLDGTECGVEKWCSKGRCRSLVELTPIAAVHGRWSSWGPRSPCSRSCGGGVVTRRRQCNNPRPAFGGRACVGADLQAEMCNTQACEKTQLEFMSQQCARTDGQPLRSSPGGASFYHWGAAVPHSQGDALCRHMCRAIGESFIMKRGDSFLDGTRCMPSGPREDGTLSLCVSGSCRTFGCDGRMDSQQVWDRCQVCGGDNSTCSPRKGSFTAGRAREYVTFLTVTPNLTSVYIANHRPLFTHLAVRIGGRYVVAGKMSISPNTTYPSLLEDGRVEYRVALTEDRLPRLEEIRIWGPLQEDADIQVYRRYGEEYGNLTRPDITFTYFQPKPRQAWVWAAVRGPCSVSCGAGLRWVNYSCLDQARKELVETVQCQGSQQPPAWPEACVLEPCPPYWAVGDFGPCSASCGGGLRERPVRCVEAQGSLLKTLPPARCRAGAQQPAVALETCNPQPCPARWEVSEPSSCTSAGGAGLALENETCVPGADGLEAPVTEGPGSVDEKLPAPEPCVGMSCPPGWGHLDATSAGEKAPSPWGSIRTGAQAAHVWTPAAGSCSVSCGRGLMELRFLCMDSALRVPVQEELCGLASKPGSRREVCQAVPCPARWQYKLAACSVSCGRGVVRRILYCARAHGEDDGEEILLDTQCQGLPRPEPQEACSLEPCPPRWKVMSLGPCSASCGLGTARRSVACVQLDQGQDVEVDEAACAALVRPEASVPCLIADCTYRWHVGTWMECSVSCGDGIQRRRDTCLGPQAQAPVPADFCQHLPKPVTVRGCWAGPCVGQGTPSLVPHEEAAAPGRTTATPAGASLEWSQARGLLFSPAPQPRRLLPGPQENSVQSSACGRQHLEPTGTIDMRGPGQADCAVAIGRPLGEVVTLRVLESSLNCSAGDMLLLWGRLTWRKMCRKLLDMTFSSKTNTLVVRQRCGRPGGGVLLRYGSQLAPETFYRECDMQLFGPWGEIVSPSLSPATSNAGGCRLFINVAPHARIAIHALATNMGAGTEGANASYILIRDTHSLRTTAFHGQQVLYWESESSQAEMEFSEGFLKAQASLRGQYWTLQSWVPEMQDPQSWKGKEGT

Kd [5]: > 500 nM | Kd [6]: 79 nM
B2: Human recombinant ADAMTS13 with the active site mutation E225Q (enzyme, UniProt Q76LX8 75-1427, looked up)
chain: B1 chain with E151Q
